Test results: patent publication US10808017B2, “Ubiquitin variants and uses therof as 53BP1 inhibitors” (The Governing Council of the University of Toronto, priority 2016, dated 2020)
“Also recorded” adds a separate entry of the source.

Legend:
[1] = test system: gene targeting at the LMNA locus in U2OS cells; assay: LMNA mClover gene targeting assay (CRISPR/Cas9); format: cell-based
Protocol: (§1) FIG. 4. Activation of HR by i53. FIG. 4A, Schematic of the DR-GFP assay. FIG. 4B. U2OS DR-GFP cells were transfected with the vectors expressing i53, the DM mutant or an empty vector control (EV) along with an I-Scel expression vector. The percentage of GFP-positive cells was determined 48 h post-transfection for each condition and was normalized to the empty vector condition (mean±s.d., N=4). FIG. 4C, U2OS DR-GFP were first transfected with siRNAs targeting the 53BP1 or BRCA1 mRNAs along with a non-targeting siRNA (CTRL). 24 h post-transfection, cells were transfected with the I-SceI expression vector and the percentage of GFP-positive cells was determined 48 h post-siRNA transfection for each condition. The values were normalized to the empty vector condition and presented as the mean±s.e.m; N=4. FIG. 4D, Schematic of the gene targeting assay. FIG. 4E, Gene targeting efficiency at the LMNA locus in parental or 53BP1Δ U2OS cells following transfection with vectors expressing Flag-tagged i53 or its DM mutant or an empty vector control (EV). The DNA-PK inhibitor NU7441 was also added where indicated. 24 h post-transfection, cells were analysed for mClover fluorescence. Individual experiments are presented with the error bar representing the s.d., (N=3). FIG. 4F, Gene targeting at the LMNA locus in G 1-arrested parental (WT) or 53BP1Δ U2OS cells transfected with vectors expressing Flag-tagged i53 or its DM mutant or an empty vector control (EV). The DNA-PK inhibitor NU7441 was also added in the indicated conditions. 24 h post-transfection, cells were analysed for mClover fluorescence. Individual experiments are present with the error bar representing the s.d., (N=3).
The Lamin A (LMNA) assay to measure the frequency of introduction of the coding sequence for mClover at the 5′ end of LMNA using the CRISPR/Cas9 was performed as previously described4. Parental or 53BP1Δ U2OS cell lines were transfected with the indicated plasmids using Lipofectamine RNAiMAX (Invitrogen). 24 h later, the cells were electroporated with 2.5 μg of sgRNA plasmids and 2.5 μg of donor template using a Nucleofector (Lonza; protocol X-001). Parental or 53BP1Δ U2OS cells stably expressing CtIP-T847E mutant were transfected with an siRNA against KEAP1 and the indicated plasmids and processed as previously described.

[2] = test system: gene conversion (HR) in U2OS DR-GFP cells; assay: Direct-repeat (DR)-GFP gene conversion assay; format: cell-based, human
Protocol: as §1
The direct repeat (DR)-GFP assay to measure the frequency of HR and the strand annealing EJ2-GFP assay to measure the frequency of MMEJ were performed as previously described. Briefly, U2OS DR-GFP or U2OS EJ2-GFP cells were transfected with 10 nM siRNA (Dharmacon) using Lipofectamine RNAiMAX (Invitrogen). 24 h later, the cells were transfected with the pCBASceI plasmid (Addgene #26477) and plasmids, using Lipofectamine 2000 (Invitrogen). 48 h post-plasmid transfection, the cells were trypsinized and the percentage of GFP-expressing cells was analyzed using the BD FACSCalibur flow cytometer.
AAV-293 cells (Agilent) were transfected with pAAV expression, pDJ and pHelper constructs (Cell Biolabs, Inc., USA) in equal amounts using PEI to produce AAV-DJ expression viruses. 48-72 h later, the viral supernatant was used to transduce target cells for 24 h, and assays were initiated a further 24 h later.

CAPZA2 = target: T1, CAPZA2 (Homo sapiens, UniProt P47755); assay: Flag IP-MS of i53/i53-DM baits: prey CAPZA2; format: binding; details: 293T Flp-In/T-Rex extracts, LC-MS/MS, one column per replicate IP
T1 construct: endogenous in cells; host or cells: HEK293 Flp-In/T-REx
Protocol: (§2) Following immunoprecipitation of Flag-tagged i53 and i-53-DM from HEK293 Flp-In/T-REx cells, peptides were identified using LC-MS/MS. Proteins were digested in solution with trypsin (Sigma, T7575-1KT) and dried to completeness. For LC-MS/MS analysis, peptides were reconstituted in 5% formic acid and loaded onto a 12-15 cm fused silica column with pulled tip packed in-house with 3.5 μm Zorbax C18 (Agilent Technologies, Calif., USA).
(§3) i53 and i53-DM precipitates were analyzed using an LTQ (Thermo Scientific) coupled to an Agilent 1100 Series HPLC (Agilent Technologies). Peptides were eluted from the column using a 90 min period cycle with a linear gradient from 0% to 40% ACN in 0.1% formic acid. Tandem MS spectra were acquired in a data-dependent mode for the top 5 (LTQ) most abundant ions using collision-induced dissociation. Acquired spectra were searched against the human Refseq_V53 database using Mascot (Matrix Science).
(§4) 293T Flp-In/T-Rex cell lines were generated that expressed Flag-tagged i53 or i53-DM under the control of a tetracycline-inducible promoter as previously described. Nine IP-MS experiments were analyzed (3 biological replicate IPs each for control i53- and i53-DM expressing cell lines). The interacting proteins were identified by MASCOT to identify high-confidence interactors for i53. […]

RPL17 = target: T2, RPL17 (Homo sapiens, UniProt P18621); assay: Flag IP-MS of i53/i53-DM baits: prey RPL17; format: binding; details: 293T Flp-In/T-Rex extracts, LC-MS/MS, one column per replicate IP
T2 construct: endogenous in cells; host or cells: HEK293 Flp-In/T-REx
Protocol: as §2, §3, §4

KDM5B = target: T3, KDM5B (Homo sapiens, UniProt Q9UGL1); assay: Flag IP-MS of i53/i53-DM baits: prey KDM5B; format: binding; details: 293T Flp-In/T-Rex extracts, LC-MS/MS, one column per replicate IP
T3 construct: endogenous in cells; host or cells: HEK293 Flp-In/T-REx
Protocol: as §2, §3, §4

VPS13C = target: T4, VPS13C (Homo sapiens, UniProt Q709C8); assay: Flag IP-MS of i53/i53-DM baits: prey VPS13C; format: binding; details: 293T Flp-In/T-Rex extracts, LC-MS/MS, one column per replicate IP
T4 construct: endogenous in cells; host or cells: HEK293 Flp-In/T-REx cells
Protocol: as §2, §3, §4

RBMXL1 = target: T5, RBMXL1 (Homo sapiens, UniProt Q96E39); assay: Flag IP-MS of i53/i53-DM baits: prey RBMXL1; format: binding; details: 293T Flp-In/T-Rex extracts, LC-MS/MS, one column per replicate IP
T5 construct: endogenous in cells; host or cells: HEK293 Flp-In/T-REx cells
Protocol: as §2, §3, §4

INTS3 = target: T6, INTS3 (Homo sapiens, UniProt Q68E01); assay: Flag IP-MS of i53/i53-DM baits: prey INTS3; format: binding; details: 293T Flp-In/T-Rex extracts, LC-MS/MS, one column per replicate IP
T6 construct: Following immunoprecipitation of Flag-tagged i53 and i-53-DM from HEK293 Flp-In/T-REx cells, peptides were identified using LC-MS/MS; endogenous in cells; host or cells: HEK293 Flp-In/T-REx cells
Protocol: as §2, §3, §4

TRIOBP = target: T7, TRIOBP (Homo sapiens, UniProt Q9H2D6); assay: Flag IP-MS of i53/i53-DM baits: prey TRIOBP; format: binding; details: 293T Flp-In/T-Rex extracts, LC-MS/MS, one column per replicate IP
T7 construct: endogenous in cells; host or cells: HEK293 Flp-In/T-REx
Protocol: as §2, §3, §4

ARFGAP2 = target: T8, ARFGAP2 (Homo sapiens, UniProt Q8N6H7); assay: Flag IP-MS of i53/i53-DM baits: prey ARFGAP2; format: binding; details: 293T Flp-In/T-Rex extracts, LC-MS/MS, one column per replicate IP
T8 construct: endogenous in cells; host or cells: HEK293 Flp-In/T-REx
Protocol: as §2, §3, §4

T5 sequence (Q96E39 whole entry): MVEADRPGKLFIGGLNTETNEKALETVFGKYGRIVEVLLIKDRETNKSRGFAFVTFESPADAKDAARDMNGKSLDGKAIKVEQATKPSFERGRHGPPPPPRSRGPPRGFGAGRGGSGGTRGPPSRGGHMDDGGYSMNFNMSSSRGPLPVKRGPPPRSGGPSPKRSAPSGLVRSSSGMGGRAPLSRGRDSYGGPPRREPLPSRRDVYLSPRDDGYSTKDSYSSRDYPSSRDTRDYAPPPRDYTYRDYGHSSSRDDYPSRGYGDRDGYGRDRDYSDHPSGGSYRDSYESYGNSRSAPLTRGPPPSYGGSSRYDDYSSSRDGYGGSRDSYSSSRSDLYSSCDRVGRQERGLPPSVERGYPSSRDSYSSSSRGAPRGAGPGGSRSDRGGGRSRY
T8 sequence (Q8N6H7 whole entry): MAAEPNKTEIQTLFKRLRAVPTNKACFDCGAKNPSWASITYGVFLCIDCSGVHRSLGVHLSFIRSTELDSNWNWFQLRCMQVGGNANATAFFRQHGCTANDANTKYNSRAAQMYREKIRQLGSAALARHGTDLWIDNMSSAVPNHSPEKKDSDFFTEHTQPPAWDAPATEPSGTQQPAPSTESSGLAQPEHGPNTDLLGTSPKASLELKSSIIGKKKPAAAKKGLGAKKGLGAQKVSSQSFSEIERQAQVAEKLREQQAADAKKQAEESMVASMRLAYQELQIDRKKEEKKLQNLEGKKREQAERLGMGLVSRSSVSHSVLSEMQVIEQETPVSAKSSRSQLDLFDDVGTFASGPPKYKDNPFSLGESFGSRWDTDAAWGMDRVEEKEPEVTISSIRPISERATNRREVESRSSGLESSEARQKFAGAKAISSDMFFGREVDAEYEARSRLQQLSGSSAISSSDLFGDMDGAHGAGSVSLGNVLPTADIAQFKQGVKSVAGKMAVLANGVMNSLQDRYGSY
T7 sequence (Q9H2D6 whole entry): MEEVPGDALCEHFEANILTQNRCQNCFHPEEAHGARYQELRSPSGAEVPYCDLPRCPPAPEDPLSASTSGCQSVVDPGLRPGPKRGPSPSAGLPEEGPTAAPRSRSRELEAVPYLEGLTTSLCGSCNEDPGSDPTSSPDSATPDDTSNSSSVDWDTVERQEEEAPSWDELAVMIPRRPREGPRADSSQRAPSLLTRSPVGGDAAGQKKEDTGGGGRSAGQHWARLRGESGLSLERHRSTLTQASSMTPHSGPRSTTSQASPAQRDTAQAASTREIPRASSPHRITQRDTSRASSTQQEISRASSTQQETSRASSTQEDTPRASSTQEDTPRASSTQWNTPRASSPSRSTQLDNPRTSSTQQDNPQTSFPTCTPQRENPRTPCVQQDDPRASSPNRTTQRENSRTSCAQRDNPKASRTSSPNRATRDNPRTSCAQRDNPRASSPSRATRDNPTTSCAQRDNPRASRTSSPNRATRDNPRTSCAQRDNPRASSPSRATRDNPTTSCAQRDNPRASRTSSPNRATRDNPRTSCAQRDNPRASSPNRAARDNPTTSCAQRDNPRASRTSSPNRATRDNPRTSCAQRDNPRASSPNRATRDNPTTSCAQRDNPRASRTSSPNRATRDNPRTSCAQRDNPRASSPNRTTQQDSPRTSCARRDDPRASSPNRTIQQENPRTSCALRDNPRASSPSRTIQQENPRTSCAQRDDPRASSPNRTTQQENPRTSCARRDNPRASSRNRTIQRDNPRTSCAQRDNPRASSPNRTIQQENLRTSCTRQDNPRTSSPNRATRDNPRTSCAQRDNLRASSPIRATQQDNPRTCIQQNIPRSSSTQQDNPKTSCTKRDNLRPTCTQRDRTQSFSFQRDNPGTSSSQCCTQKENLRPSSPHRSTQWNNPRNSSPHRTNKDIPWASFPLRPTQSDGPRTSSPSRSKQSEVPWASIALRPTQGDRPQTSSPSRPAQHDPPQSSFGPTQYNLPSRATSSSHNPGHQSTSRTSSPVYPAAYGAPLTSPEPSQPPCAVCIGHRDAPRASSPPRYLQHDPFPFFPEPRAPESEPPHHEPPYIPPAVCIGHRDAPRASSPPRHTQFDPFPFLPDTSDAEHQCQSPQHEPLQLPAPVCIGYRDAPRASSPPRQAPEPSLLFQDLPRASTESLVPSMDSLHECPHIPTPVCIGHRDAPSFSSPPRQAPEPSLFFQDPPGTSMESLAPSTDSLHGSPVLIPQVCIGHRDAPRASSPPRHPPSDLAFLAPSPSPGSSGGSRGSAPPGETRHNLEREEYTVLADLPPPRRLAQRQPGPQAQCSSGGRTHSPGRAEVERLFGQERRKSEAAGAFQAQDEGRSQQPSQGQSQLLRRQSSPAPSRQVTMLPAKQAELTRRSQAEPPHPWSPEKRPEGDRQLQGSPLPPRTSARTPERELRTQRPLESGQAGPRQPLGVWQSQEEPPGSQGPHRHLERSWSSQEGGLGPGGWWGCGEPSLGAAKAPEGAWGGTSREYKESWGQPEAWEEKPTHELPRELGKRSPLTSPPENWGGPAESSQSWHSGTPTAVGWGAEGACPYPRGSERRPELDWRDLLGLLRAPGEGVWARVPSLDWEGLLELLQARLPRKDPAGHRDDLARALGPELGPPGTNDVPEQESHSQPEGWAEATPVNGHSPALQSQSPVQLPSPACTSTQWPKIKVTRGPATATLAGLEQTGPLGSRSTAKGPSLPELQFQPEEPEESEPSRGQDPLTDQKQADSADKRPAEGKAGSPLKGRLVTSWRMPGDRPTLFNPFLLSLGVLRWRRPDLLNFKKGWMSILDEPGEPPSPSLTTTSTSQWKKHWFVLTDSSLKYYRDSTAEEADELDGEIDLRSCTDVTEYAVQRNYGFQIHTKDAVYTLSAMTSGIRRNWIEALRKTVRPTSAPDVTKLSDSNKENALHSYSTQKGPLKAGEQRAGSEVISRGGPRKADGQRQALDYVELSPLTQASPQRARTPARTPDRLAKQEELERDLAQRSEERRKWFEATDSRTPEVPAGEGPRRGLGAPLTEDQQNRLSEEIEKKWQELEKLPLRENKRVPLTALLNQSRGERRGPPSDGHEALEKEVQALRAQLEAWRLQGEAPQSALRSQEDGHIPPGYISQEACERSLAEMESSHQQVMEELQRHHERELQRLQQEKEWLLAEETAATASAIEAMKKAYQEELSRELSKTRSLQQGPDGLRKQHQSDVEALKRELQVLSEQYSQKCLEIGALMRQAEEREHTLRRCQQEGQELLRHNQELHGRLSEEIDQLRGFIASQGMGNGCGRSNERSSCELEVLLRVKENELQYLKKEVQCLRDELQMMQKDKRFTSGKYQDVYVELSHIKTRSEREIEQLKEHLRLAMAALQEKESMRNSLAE
T3 sequence (Q9UGL1 whole entry): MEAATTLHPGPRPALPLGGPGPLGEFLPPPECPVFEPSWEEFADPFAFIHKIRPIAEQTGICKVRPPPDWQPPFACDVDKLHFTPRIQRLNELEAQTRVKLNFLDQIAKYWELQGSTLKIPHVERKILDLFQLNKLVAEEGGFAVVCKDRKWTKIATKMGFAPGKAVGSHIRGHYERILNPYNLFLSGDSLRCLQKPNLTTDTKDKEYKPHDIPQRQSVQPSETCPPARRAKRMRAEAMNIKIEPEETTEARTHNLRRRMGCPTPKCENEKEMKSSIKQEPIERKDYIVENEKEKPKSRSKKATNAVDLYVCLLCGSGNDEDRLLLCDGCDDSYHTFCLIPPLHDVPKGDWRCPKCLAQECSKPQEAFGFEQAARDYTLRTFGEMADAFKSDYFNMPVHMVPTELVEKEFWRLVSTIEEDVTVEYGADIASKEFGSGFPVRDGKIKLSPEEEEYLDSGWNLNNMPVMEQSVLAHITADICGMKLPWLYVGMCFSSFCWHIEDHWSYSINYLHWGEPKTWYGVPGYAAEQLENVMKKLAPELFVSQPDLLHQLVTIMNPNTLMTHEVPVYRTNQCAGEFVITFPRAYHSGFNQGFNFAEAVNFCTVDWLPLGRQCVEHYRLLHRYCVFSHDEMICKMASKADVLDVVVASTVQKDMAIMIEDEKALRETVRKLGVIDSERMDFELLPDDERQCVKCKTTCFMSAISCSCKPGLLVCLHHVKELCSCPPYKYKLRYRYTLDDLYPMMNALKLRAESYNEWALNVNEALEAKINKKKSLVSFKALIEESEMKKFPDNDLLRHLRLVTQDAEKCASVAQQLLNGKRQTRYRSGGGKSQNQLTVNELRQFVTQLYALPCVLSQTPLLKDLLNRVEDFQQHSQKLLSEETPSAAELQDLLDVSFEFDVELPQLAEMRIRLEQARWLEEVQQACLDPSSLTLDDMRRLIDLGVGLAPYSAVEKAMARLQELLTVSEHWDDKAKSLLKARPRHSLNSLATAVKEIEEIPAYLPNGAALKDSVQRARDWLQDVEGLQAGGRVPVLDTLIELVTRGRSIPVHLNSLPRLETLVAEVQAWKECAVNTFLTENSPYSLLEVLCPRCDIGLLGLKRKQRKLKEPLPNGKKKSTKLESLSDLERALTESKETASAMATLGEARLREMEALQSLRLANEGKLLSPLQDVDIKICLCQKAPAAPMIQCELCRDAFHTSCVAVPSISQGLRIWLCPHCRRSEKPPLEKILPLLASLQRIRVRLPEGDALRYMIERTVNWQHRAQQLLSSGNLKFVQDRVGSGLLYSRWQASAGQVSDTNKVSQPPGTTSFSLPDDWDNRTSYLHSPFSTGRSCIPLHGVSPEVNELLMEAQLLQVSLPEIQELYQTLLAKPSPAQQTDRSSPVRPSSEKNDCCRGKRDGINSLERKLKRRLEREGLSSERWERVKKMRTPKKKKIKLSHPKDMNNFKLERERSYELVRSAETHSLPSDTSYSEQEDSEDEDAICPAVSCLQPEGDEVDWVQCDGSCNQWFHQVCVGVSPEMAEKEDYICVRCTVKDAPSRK

Substance | Gene targeting at the LMNA locus in 53BP1Δ cells ([1]; 53BP1Δ U2OS cells) | Cas9-stimulated gene targeting at the LMNA locus in G1 ([1]; G1-arrested U2OS cells expressing CtIP-T847E, KEAP1 siRNA, compared with 53BP1 knockout) | Gene targeting at the LMNA locus, i53 combined with DNA-PK inhibition ([1]; i53 plus NU7441 (10 μM)) | Change of gene targeting at the LMNA locus (in words) ([1]; parental U2OS cells, NU7441 at 10 μM) | Gene targeting efficiency at the LMNA locus (mClover-positive cells) ([1]; parental U2OS cells, empty vector control 4.79% +/−0.5%) [%] | Homologous recombination in DR-GFP gene conversion assay after AAV-mediated delivery ([2]; AAV-DJ delivery, versus Flag-i53-DM) | Gene conversion in DR-GFP assay (comparison in words) ([2]; SCR7 at 1 μM, i53 by plasmid expression) | Total peptides, CAPZA2 (CAPZA2) | Total peptides, RPL17 (RPL17) | Total peptides, KDM5B (KDM5B) | Total peptides, VPS13C (VPS13C) | Total peptides, RBMXL1 (RBMXL1) | Total peptides, INTS3 (INTS3) | Total peptides, TRIOBP (TRIOBP) | Total peptides, ARFGAP2 (ARFGAP2)
i53: UbvG08 with C-terminal di-glycine removed and I44A mutation; genetically encoded inhibitor of 53BP1 | did not result in a further increase in gene targeting | nearly as efficient as the 53BP1 knockout | additive increase in gene targeting | nearly two-fold; also recorded: approached that of 53BP1-null cells | 8.58 | stimulate homologous recombination | more potent inducer of gene conversion; also recorded: stimulated gene conversion more than 53BP1 depletion by siRNA | 7 | – | – | – | – | – | – | –
i53-DM: 53BP1-binding deficient mutant of i53 (P69L, L70V) | – | – | – | – | – | – | – | – | 5 | 3 | 5 | 3 | 3 | 3 | 3
